Data taken from the supplement of paper PMC9112550, “Optimization of the antimicrobial peptide Bac7 by deep mutational scanning” (BMC Biology, 2022).

Test system: Escherichia coli TOP10
Experiment: shrunken log2 fold change of peptide-encoding DNA abundance (4.5 h post-induction vs induction); higher = less antimicrobial activity (less host growth inhibition)
Details: time post-induction: 4.5 h; library: site-saturation at positions 5, 18, 19, 20
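Further: peptides expressed intracellularly from a pBAD plasmid library in pooled LB shake-flask culture, induced with 0.3% L-arabinose, DNA abundance read by NGS, three biological replicates, DESeq2 with apeglm shrinkage.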

| Sequence | shrunken log2 fold change |
| --- | --- |
| RRIRFRPPRLPRPRPRPSQIPRP | -0.253 |
| RRIRSRPPRLPRPRPRPWVLPRP | 2.29 |
| RRIRFRPPRLPRPRPRPTNDPRP | -0.414 |
| RRIRDRPPRLPRPRPRPKCSPRP | 0.243 |
| RRIRNRPPRLPRPRPRPAETPRP | -0.119 |
| RRIRDRPPRLPRPRPRPVFGPRP | 0.342 |
| RRIRSRPPRLPRPRPRPMHQPRP | -0.0538 |
| RRIRHRPPRLPRPRPRPGWQPRP | 0.33 |
| RRIRPRPPRLPRPRPRPDRPPRP | -0.0807 |
| RRIRQRPPRLPRPRPRPCYKPRP | -0.271 |
| RRIRARPPRLPRPRPRPRPEPRP | 0.686 |
| RRIRDRPPRLPRPRPRPNFCPRP | -0.00997 |
| RRIRQRPPRLPRPRPRPTQGPRP | 2.34 |
| RRIRQRPPRLPRPRPRPHYLPRP | -0.0046 |
| RRIRWRPPRLPRPRPRPYIGPRP | -0.127 |
| RRIRERPPRLPRPRPRPGQHPRP | -0.242 |
| RRIRNRPPRLPRPRPRPWWWPRP | 0.373 |
| RRIRIRPPRLPRPRPRPECCPRP | 0.0559 |
| RRIRGRPPRLPRPRPRPTKWPRP | 0.262 |
| RRIRMRPPRLPRPRPRPHLMPRP | 0.151 |
| RRIRNRPPRLPRPRPRPDICPRP | 0.0866 |
| RRIRCRPPRLPRPRPRPPRMPRP | 0.671 |
| RRIRPRPPRLPRPRPRPWPFPRP | 0.108 |
| RRIRCRPPRLPRPRPRPVIVPRP | -0.208 |
| RRIRPRPPRLPRPRPRPKYVPRP | -0.132 |

| Sequence | shrunken log2 fold change |
| --- | --- |
| RRIRMRPPRLPRPRPRPKDYPRP | 0.224 |
| RRIRLRPPRLPRPRPRPCYFPRP | -0.232 |
| RRIRDRPPRLPRPRPRPNGCPRP | -0.00152 |
| RRIRMRPPRLPRPRPRPPADPRP | 2.99 |
| RRIRNRPPRLPRPRPRPWNIPRP | -0.0117 |
| RRIRHRPPRLPRPRPRPRIFPRP | -0.121 |
| RRIRARPPRLPRPRPRPISIPRP | -0.439 |
| RRIRMRPPRLPRPRPRPVCRPRP | 1.48 |
| RRIRMRPPRLPRPRPRPHDLPRP | -0.0136 |
| RRIRQRPPRLPRPRPRPWKVPRP | -0.00992 |
| RRIRHRPPRLPRPRPRPCWTPRP | -0.237 |
| RRIRSRPPRLPRPRPRPRRAPRP | 0.41 |
| RRIRSRPPRLPRPRPRPVDCPRP | -0.12 |
| RRIRRRPPRLPRPRPRPYRCPRP | -1.3 |
| RRIRWRPPRLPRPRPRPNIMPRP | -0.296 |
| RRIRTRPPRLPRPRPRPMHSPRP | 0.02 |
| RRIRFRPPRLPRPRPRPEYPPRP | -0.617 |
| RRIRSRPPRLPRPRPRPIIYPRP | -0.182 |
| RRIRSRPPRLPRPRPRPAPTPRP | 0.732 |
| RRIRRRPPRLPRPRPRPTMCPRP | 0.233 |
| RRIRWRPPRLPRPRPRPWMTPRP | 0.333 |
| RRIRFRPPRLPRPRPRPWLSPRP | -0.129 |
| RRIRGRPPRLPRPRPRPGVCPRP | 0.892 |
| RRIRRRPPRLPRPRPRPHHAPRP | -0.0424 |
| RRIRCRPPRLPRPRPRPFNIPRP | -0.436 |

| Sequence | shrunken log2 fold change |
| --- | --- |
| RRIRRRPPRLPRPRPRPNDKPRP | -0.178 |
| RRIRLRPPRLPRPRPRPLVVPRP | -0.113 |
| RRIRDRPPRLPRPRPRPYFWPRP | -0.0487 |
| RRIRWRPPRLPRPRPRPGRIPRP | 0.298 |
| RRIRNRPPRLPRPRPRPCAVPRP | -0.273 |
| RRIRARPPRLPRPRPRPQPLPRP | 0.209 |
| RRIRLRPPRLPRPRPRPETMPRP | 0.0125 |
| RRIRARPPRLPRPRPRPNVFPRP | 0.258 |
| RRIRRRPPRLPRPRPRPDHIPRP | 0.0664 |
| RRIRPRPPRLPRPRPRPCWRPRP | 0.00714 |
| RRIRLRPPRLPRPRPRPIQWPRP | 0.146 |
| RRIRIRPPRLPRPRPRPHEHPRP | -0.405 |
| RRIRNRPPRLPRPRPRPNMCPRP | -0.0592 |
| RRIRTRPPRLPRPRPRPLPIPRP | -0.0647 |
| RRIRQRPPRLPRPRPRPTADPRP | 0.392 |
| RRIRRRPPRLPRPRPRPTHEPRP | 0.338 |
| RRIRGRPPRLPRPRPRPFKNPRP | 0.243 |
| RRIRNRPPRLPRPRPRPHRAPRP | 0.264 |
| RRIRARPPRLPRPRPRPGIEPRP | 0.108 |
| RRIRKRPPRLPRPRPRPHVYPRP | 0.22 |
| RRIRKRPPRLPRPRPRPLGSPRP | -0.115 |
| RRIRRRPPRLPRPRPRPGRNPRP | -0.000492 |
| RRIRTRPPRLPRPRPRPWSFPRP | -0.0893 |
| RRIRFRPPRLPRPRPRPDMKPRP | -0.25 |
| RRIRDRPPRLPRPRPRPYFYPRP | -0.793 |

| Sequence | shrunken log2 fold change |
| --- | --- |
| RRIRPRPPRLPRPRPRPRKCPRP | 0.0115 |
| RRIRGRPPRLPRPRPRPVAYPRP | 0.0402 |
| RRIRRRPPRLPRPRPRPVCIPRP | 0.0361 |
| RRIRSRPPRLPRPRPRPSFIPRP | -0.661 |
| RRIRPRPPRLPRPRPRPQMNPRP | -0.267 |
| RRIRIRPPRLPRPRPRPKLWPRP | -0.182 |
| RRIRHRPPRLPRPRPRPTQHPRP | -0.0131 |
| RRIRARPPRLPRPRPRPEACPRP | 1.24 |
| RRIRLRPPRLPRPRPRPIYGPRP | 0.0275 |
| RRIRCRPPRLPRPRPRPSHKPRP | -0.641 |
| RRIRWRPPRLPRPRPRPYNIPRP | -0.243 |
| RRIRNRPPRLPRPRPRPNQMPRP | -0.153 |
| RRIRMRPPRLPRPRPRPQLKPRP | 1.42 |
| RRIRHRPPRLPRPRPRPFFYPRP | -0.4 |
| RRIRDRPPRLPRPRPRPNSAPRP | -1.36 |
| RRIRNRPPRLPRPRPRPKGTPRP | 0.118 |
| RRIRDRPPRLPRPRPRPFWYPRP | -0.167 |
| RRIRARPPRLPRPRPRPNFTPRP | 0.134 |
| RRIRIRPPRLPRPRPRPFYHPRP | -0.594 |
| RRIRNRPPRLPRPRPRPPFAPRP | 0.201 |
| RRIRMRPPRLPRPRPRPWGHPRP | 0.0533 |
| RRIRQRPPRLPRPRPRPRWAPRP | 0.144 |
| RRIRNRPPRLPRPRPRPDHEPRP | -0.039 |
| RRIRTRPPRLPRPRPRPLDDPRP | 0.115 |
| RRIRDRPPRLPRPRPRPHSWPRP | 0.05 |

| Sequence | shrunken log2 fold change |
| --- | --- |
| RRIRFRPPRLPRPRPRPWPMPRP | -0.117 |
| RRIRHRPPRLPRPRPRPPETPRP | 0.0733 |
| RRIRRRPPRLPRPRPRPEDMPRP | 0.296 |
| RRIRERPPRLPRPRPRPLSNPRP | 0.0169 |
| RRIRDRPPRLPRPRPRPSPIPRP | 0.0798 |
| RRIRFRPPRLPRPRPRPMKFPRP | -0.681 |
| RRIRTRPPRLPRPRPRPSKMPRP | -0.793 |
| RRIRARPPRLPRPRPRPIMNPRP | -0.151 |
| RRIRNRPPRLPRPRPRPDTEPRP | -0.0108 |
| RRIRNRPPRLPRPRPRPCTNPRP | 0.00408 |
| RRIRERPPRLPRPRPRPRNNPRP | -0.441 |
| RRIRSRPPRLPRPRPRPKNTPRP | -0.356 |
| RRIRLRPPRLPRPRPRPLMQPRP | -0.0571 |
| RRIRLRPPRLPRPRPRPHKWPRP | -0.0343 |
| RRIRVRPPRLPRPRPRPPPYPRP | 0.233 |
| RRIRVRPPRLPRPRPRPYKYPRP | -0.835 |
| RRIRERPPRLPRPRPRPEPSPRP | 0.0429 |
| RRIRHRPPRLPRPRPRPPADPRP | 0.492 |
| RRIRPRPPRLPRPRPRPSDTPRP | -0.29 |
| RRIRTRPPRLPRPRPRPRYVPRP | -0.426 |
| RRIRCRPPRLPRPRPRPVKWPRP | -0.24 |
| RRIRDRPPRLPRPRPRPMWHPRP | -0.008 |
| RRIRKRPPRLPRPRPRPEFPPRP | 0.0804 |
| RRIRWRPPRLPRPRPRPSQYPRP | -0.41 |
| RRIRHRPPRLPRPRPRPQVKPRP | -1.6 |

| Sequence | shrunken log2 fold change |
| --- | --- |
| RRIRGRPPRLPRPRPRPRWHPRP | 0.522 |
| RRIRRRPPRLPRPRPRPWKHPRP | -0.167 |
| RRIRTRPPRLPRPRPRPVDTPRP | 0.0439 |
| RRIRTRPPRLPRPRPRPLHWPRP | 0.111 |
| RRIRLRPPRLPRPRPRPMNQPRP | -0.302 |
| RRIRLRPPRLPRPRPRPYKRPRP | -0.0165 |
| RRIRQRPPRLPRPRPRPYRSPRP | -0.0119 |
| RRIRKRPPRLPRPRPRPLCAPRP | 0.604 |
| RRIRYRPPRLPRPRPRPTITPRP | -0.665 |
| RRIRTRPPRLPRPRPRPCQSPRP | 0.183 |
| RRIRARPPRLPRPRPRPYSTPRP | -0.563 |
| RRIRARPPRLPRPRPRPNDSPRP | -0.225 |
| RRIRFRPPRLPRPRPRPTTKPRP | -0.167 |
| RRIRERPPRLPRPRPRPNKHPRP | -0.575 |
| RRIRERPPRLPRPRPRPIFFPRP | 0.0602 |
| RRIRIRPPRLPRPRPRPPYSPRP | 0.0677 |
| RRIRTRPPRLPRPRPRPPQLPRP | 0.0198 |
| RRIRPRPPRLPRPRPRPFLCPRP | -0.0669 |
| RRIRLRPPRLPRPRPRPETGPRP | -0.0316 |
| RRIRCRPPRLPRPRPRPEISPRP | -0.0399 |
| RRIRGRPPRLPRPRPRPHEYPRP | -0.325 |
| RRIRARPPRLPRPRPRPSQRPRP | 0.373 |
| RRIRLRPPRLPRPRPRPPCDPRP | -0.29 |
| RRIRCRPPRLPRPRPRPVLDPRP | 0.0892 |
| RRIRDRPPRLPRPRPRPASFPRP | 0.136 |
